One assay concerns Cry j I reactive T cells. Kind of assay: T cell proliferation assay, Cry j I primed T cell lines, modified peptides (Example 11). The class given is cell-based, human. The conditions noted are these: panel of thirty-nine patients, FIG. 21. How it is done: Long term T cell lines were established by stimulation of 2×10^6 PBL/ml in bulk cultures of complete medium (RPMI-1640, 2 mM L-glutamine, 100 U/ml penicillin/streptomycin, 5×10^−5M 2-mercaptoethanol, and 10 mM HEPES supplemented with 5% heat inactivated human AB serum) with 20 μg/ml of partially purified native Cry j I (75% purity containing three bands similar to the three bands in FIG. 2) for 6 days at 37° C. in a humidified 5% CO2 incubator to select for Cry j I reactive T cells. This amount of priming antigen was determined to be optimal for the activation of T cells from most cedar pollen allergic patients. Viable cells were purified by LSM centrifugation and cultured in complete medium supplemented with 5 units recombinant human IL-2/ml and 5 units recombinant human IL4/ml for up to three weeks until the cells no longer responded to lymphokines and were considered “rested”. The ability of the T cells to proliferate to selected Cry j I peptides, partially purified Cry j I, affinity purified Cry j I, or positive (PHA) controls or negative controls (medium only) was then assessed. […]
The maximum response in a titration of each peptide is expressed as the stimulation index (S.I.). […]

For another assay, the system named is human basophil. The assay is described as follows: Histamine release assay. It is filed as cell-based. The conditions noted are these: one Japanese cedar pollen allergic patient, FIG. 11. As to the method: To determine whether a peptide which binds IgE results in the release of mediators, a histamine release assay can be performed using standard reagents and protocols obtained for example, from Amac, Inc. (Westbrook, Me.). Briefly, a buffered solution of a peptide to be tested is combined with an equal volume of whole heparinized blood from an allergic subject. After mixing and incubation, the cells are pelleted and the supernatants are processed an analyzed using a radioimmunoassay to determine the amount of histamine released.
A histamine release assay was performed on one Japanese cedar pollen allergic patient using Japanese cedar pollen SPE, purified native Cry j I and rCry j I as the added antigens. This assay is a measure of IgE reactivity through human basophil mediator release. […] Two possible explanations for this release by the rCry j I are: 1) specific reactivity with a very low proportion of the anti-Cry j I IgE capable of recognizing the recombinant form of Cry j I, or 2) non-specific release caused by low abundance of bacterial contaminants observed only at the highest antigen concentration. […] In addition, the data shown are from single data points at each protein concentration.

In assay [1] the test system is Cry j allergic patient plasma IgE. The assay is described as follows: Cry j I peptide screen, direct ELISA for IgE binding (Example 12). The arrangement: species or system human. The conditions noted are these: plasma pools PHP-A and PHP-D, FIGS. 22 and 23. The text has this:
To analyze IgE reactivity to the selected peptides discussed in example 11 and shown in FIG. 20, a direct ELISA format was used. ELISA wells were coated with the selected peptides derived from Cry j I and then assayed for IgE binding. FIGS. 22 and 23 are graphs of these binding results using two different pools of Cry j allergic patient plasma. Patient plasma pool A (denoted PHP-A) (FIG. 22) was formulated by mixing equal volumes of plasma from 22 patients that were all shown to be positive for direct IgE binding to native purified Cry j I by ELISA. The second pool (PHP-D) (FIG. 23) was formulated by the combination of equal plasma volumes from 8 patients that had IgE binding by direct ELISA to both native and denatured purified Cry j I. This pool was generated to increase the chance of detecting reactivity towards peptides. […] There was no detectable IgE binding reactivity to any of the peptides at any of the plasma concentrations used. To control for the presence of peptide coating the wells, mouse polyclonal antisera was generated to the peptides. […] The results of these assays are shown in FIG. 24, and indicate that peptides were coating the wells.
(An ELISA detects its analyte on a solid surface through an enzyme-linked reagent.)

B1: purified native Cry j I: major allergen of Japanese cedar pollen, biochemically purified in the native form (protein)
chain: DNPIDSCWRGDSNWAQNRMKLADCAVGFGSSTMGGKGGDLYTVTNSDDDPVNPAPGTLRYGATRDRPLWIIFSGNMNIKLKMPMYIAGYKTFDGRGAQVYIGNGGPCVFIKRVSNVIIHGLYLYGCSTSVLGNVLINESFGVEPVHPQDGDALTLRTATNIWIDHNSFSNSSDGLVDVTLTSTGVTISNNLFFNHHKVMLLGHDDAYSDDKSMKVTVAFNQFGPNCGQRMPRARYGLVHVANNNYDPWTIYAIGGSSNPTILSEGNSFTAPNESYKKQVTIRIGCKTSSSCSNWVWQSTQDVFYNGAYFVSSGKYEGGNIYTKKEAFNVENGNATPQLTKNAGVLTCSLSKRC
Consider B1, for which the “T cell line response” value with Cry j I reactive T cells is reported as “All but one of the thirty-nine T cell lines responded”. Further, the histamine release result with human basophil is “strong histamine release”. The “IgE binding, direct ELISA” value in assay [1] was “direct binding”.
